From publication PMC11665613 (2024) come the findings set out here.

Test in all cases: MST
Assay [1] deals with NCP2, nucleosome core particle with 3xFLAG-H3K36NleCTMS (X. laevis | , cysteine at position 36 alkylated with vinyl cyclic sulfonium 5 (NleCTMS)).
Assay [2] addresses NCP3, nucleosome core particle with 3xFLAG-H3Kc36me3 (X. laevis | , Kc36me3 (trimethyllysine mimic on cysteine at position 36)).
In assay [3] the target is NCP1, nucleosome core particle with 3xFLAG-H3K36NleCS+me2 (X. laevis | , cysteine at position 36 alkylated with vinyl dimethylsulfonium 4 (NleCS+me2)).

B1: PWWP domain of LEDGF (domain or fragment)
chain: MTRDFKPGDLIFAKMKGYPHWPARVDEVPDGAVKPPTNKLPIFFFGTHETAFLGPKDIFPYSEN
In the case of B1, the Kd in assay [1] was found to be 1200 nM; in assay [2], 1400 nM; in assay [3], 520 nM.

B2: PWWP domain of NSD2 (domain or fragment)
chain: VGDLVWSKVSGYPWWPCMVSADPLLHSYTKLKGQKKSARQYHVQFFGDAPERAWIFEKSLVAFEG
For B2, the results for the Kd in assay [1], in assay [2] and in assay [3] were 1600 nM, 1400 nM and 1100 nM, respectively.

For orientation: Kd means a measure of binding affinity in units of concentration. Low values mean tighter binding, high ones weaker binding.
